In the supplement of paper PMC7877785:
± gives the uncertainty stated by the source.

Experiment: self-splicing fitness, log relative to wild type (ln ratio); higher = more splicing; Tetrahymena group I intron in knt gene, E. coli kanamycin selection, DiMSum; sequences stand for … in CUCUCU…GGAGGGAAAAGUUAUCAGGCAUGCACCUGGUAGCUAGUCUUUAAACCAAUAGAUUGCAUCGGUUUAAAAGGCAAGACCGUCAAAUUGCGGGAAAGGGGUCAACAGCCGUUCAGUACCAAGUCUCAGGGGAAACUUUGAGAUGGCCUUGCAAAGGGUAUGGUAAUAAGCUGACGGACAUGGUCCUAACCACGCAGCCAAGUCCUAAGUCAACAGAUCUUCUGUUGAUAUGGAUGCAGUUCACAGACUAAAUGUCGGUCGGGGAAGAUGUAUUCUUCUCAUAAGAUAUAGUCGGACCUCUCCUUAAUGGGAGCUAGCGGAUGAAGUGAUGCAACACUGGAGCCGCUGGGAACUAAUUUGUAUGCGAAAGUAUAUUGAUUAGUUUUGGAGUACUCGUGGUCG
Outline: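 Library with all eight P1ex-region intron nucleotides randomised, intron inside the knt kanamycin-resistance gene on pET-22b(+), in E. coli BL21(DE3). Cells grew overnight at 37°C or 30°C on LB agar with or without 25 μg/mL kanamycin (plus 100 μg/mL carbenicillin, 50 μM IPTG, 0.2% rhamnose), in six replicate transformations. Pooled colonies were amplicon-sequenced on Illumina HiSeq 2500. DiMSum fitness is the error-weighted combination of wild-type-normalised replicate fold changes, kanamycin versus none.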

| Sequence | self-splicing fitness (ln) (30 °C) | self-splicing fitness (ln) (37 °C) |
| --- | --- | --- |
| ACUGAGCAAUAUUACGAGGA | -2.63 ± 0.23 | -1.83 ± 0.17 |
| AUACAGCAAUAUUACGUGGA | -3.06 ± 0.12 | -2.47 ± 0.12 |
| CUACAGCAAUAUUACGUGGA | -2.58 ± 0.12 | -3.11 ± 0.21 |
| GUCUAGCAAUAUUACGCAGG | -3.11 ± 0.3 | -3.31 ± 0.37 |
| CACAAGCAAUAUUACGAGCG | -0.656 ± 0.099 | 0.331 ± 0.1 |
| GCGAAGCAAUAUUACGGUUU | -3.22 ± 0.13 | -1.62 ± 0.13 |
| CGAGAGCAAUAUUACGGCCG | -3.76 ± 0.43 | -1.02 ± 0.3 |
| UUUUAGCAAUAUUACGCGUU | -2.55 ± 0.18 | -2.61 ± 0.19 |
| GGUAAGCAAUAUUACGCGAA | -1.27 ± 0.15 | -1.15 ± 0.16 |
| GCACAGCAAUAUUACGUGUC | -2.98 ± 0.12 | -2.05 ± 0.17 |
| AGGAAGCAAUAUUACGAGUC | -2.85 ± 0.35 | -1.61 ± 0.27 |
| CUAAAGCAAUAUUACGUCGA | – | -1.99 ± 0.2 |
| ACUUAGCAAUAUUACGCUGU | -3.85 ± 0.2 | -2.19 ± 0.17 |
| GCACAGCAAUAUUACGAGGC | -2.95 ± 0.12 | -3.27 ± 0.2 |
| AGCCAGCAAUAUUACGAGUC | – | -1.61 ± 0.21 |
| UUUGAGCAAUAUUACGAAUG | -3.15 ± 0.25 | -0.965 ± 0.29 |
| AGUCAGCAAUAUUACGUACG | -0.473 ± 0.08 | -0.0481 ± 0.1 |
| AGAAAGCAAUAUUACGUCGC | -2.69 ± 0.16 | -1.76 ± 0.15 |
| CAAGAGCAAUAUUACGGAGA | -2.57 ± 0.28 | -1.91 ± 0.22 |
| CUGAAGCAAUAUUACGAGUC | -3.88 ± 0.19 | -2.16 ± 0.21 |
| ACACAGCAAUAUUACGUAAA | -3.49 ± 0.15 | -1.2 ± 0.12 |
| CUUAAGCAAUAUUACGGAGU | -2.92 ± 0.099 | -2.31 ± 0.12 |
| GACCAGCAAUAUUACGCUAG | -1.29 ± 0.087 | -0.88 ± 0.1 |
| GAAUAGCAAUAUUACGGAGU | -2.02 ± 0.18 | -2.03 ± 0.23 |

| Sequence | self-splicing fitness (ln) (30 °C) | self-splicing fitness (ln) (37 °C) |
| --- | --- | --- |
| CGUUAGCAAUAUUACGAUCC | -1.74 ± 0.19 | -0.851 ± 0.21 |
| ACACAGCAAUAUUACGAUAU | -1.63 ± 0.08 | -1.62 ± 0.098 |
| CAGGAGCAAUAUUACGUAUC | -3.11 ± 0.23 | -3.54 ± 0.27 |
| GCUGAGCAAUAUUACGAUAU | -2.62 ± 0.28 | -1.08 ± 0.2 |
| UAAAAGCAAUAUUACGGAUG | -0.849 ± 0.077 | 0.0272 ± 0.099 |
| UUCGAGCAAUAUUACGUGUU | -4.05 ± 0.25 | -1.72 ± 0.18 |
| ACGAAGCAAUAUUACGAGCA | -2.84 ± 0.14 | -1.32 ± 0.12 |
| AAUCAGCAAUAUUACGGCAG | -1 ± 0.095 | -1.32 ± 0.11 |
| CUUAAGCAAUAUUACGCCCA | -2.46 ± 0.32 | -1.69 ± 0.48 |
| AGCUAGCAAUAUUACGCGCG | -0.92 ± 0.18 | -0.121 ± 0.17 |
| AGAUAGCAAUAUUACGAAGU | -3.27 ± 0.14 | -1.83 ± 0.13 |
| UUUGAGCAAUAUUACGUGGA | -2.53 ± 0.21 | -2.37 ± 0.22 |
| CUUUAGCAAUAUUACGCAAG | -2.43 ± 0.22 | -1.67 ± 0.3 |
| GAAGAGCAAUAUUACGAUAG | -3.04 ± 0.24 | -2.14 ± 0.29 |
| AGUCAGCAAUAUUACGGUGG | -3.01 ± 0.26 | -1.79 ± 0.24 |
| GGAAAGCAAUAUUACGUCCA | -1.37 ± 0.28 | -0.294 ± 0.26 |
| GUAUAGCAAUAUUACGCCGU | -2.69 ± 0.23 | -0.947 ± 0.19 |
| UUAAAGCAAUAUUACGGUCA | 0.199 ± 0.071 | 0.479 ± 0.11 |
| CUCUAGCAAUAUUACGAGAU | -3.29 ± 0.43 | -2.94 ± 0.31 |
| CUUGAGCAAUAUUACGACUU | -2.53 ± 0.37 | -3.56 ± 0.43 |
| GACCAGCAAUAUUACGUAAC | -0.981 ± 0.065 | -0.475 ± 0.079 |
| GAAUAGCAAUAUUACGACGC | 0.293 ± 0.13 | -0.0831 ± 0.16 |
| UCGUAGCAAUAUUACGGGGU | -3.35 ± 0.23 | -2.35 ± 0.25 |
